Source: the DeepSol protein solubility set

Experiment: soluble on expression in E. coli; label from the status in PepcDB or PDB records

Sequence | soluble on expression in E. coli
MGSDKIHHHHHHMDLRQLPALNAIRAFEAAARHENFSRAADELFVTHGAVSHQVRALEEELGVQLFARNGKRLCLTGAGMRYAQQVRTALMMLADATREVRASDRDRRLVVSMLSSFAARFVTPRIGTFIERHPEIDVELQSTNNLTDFARDDVDLAIRFGFGNYPGLHVEPLFDEVFFPACAPTLNGGKLPQTPADLVHYNLLRSDDELWRPWFDAAGLDTLTEPKRGILYQDSSNLLLAAIEGQGIALVRRSLAVHDLLDGRLVRLFDIDGASPWHYFFVCPPPLLNAPRVQAFRAWMFEEVAQFKLLCDELDARRAAGKTPAECAQEGGWKGLRAQP | not soluble
MGSDKIHHHHHHMDNKKPKIITIASIKGGVGKSTSAIIMATLLAKEHKVLLIDMDTQASTTSYFYKEILNQNIDIVKINVYRVLKEKIDINDSIVKIKENLDLIPSYLTLNKFLSESIPLKELRLQNNLEFLKRRYHYVIIDTNPSLDYTLSNALMTSNCIIVPMTAEKWAVESLELLEFHMNNLKIKIPIFLVITRFKKNNTHKQLLQHVESKTGFLGFIHEREDLNKKIAKNEEFDMTKDYINEYKGVLSRFLIVYDEYVK | not soluble
MGSDKIHHHHHHMDSFHSFNQHAFNRHAKTYHLFAHIQQQIAICLVQFLKQKHYAKVLDLGSGSGAVFNALERQNILIEEFIALDNSINMLKLHPTHSINIQKISLEHADFEEHVFCTYDLVVSSSSLQWARDLKSVLEKIALSSKEVALAIHTDFSLHEVHEFLGTPSPLRDLKTLKSLIKNAFKHFQIELENKRFALYFNRKQDCLNYLKKCGLLGGSTLSFKQKKHFFQNMAFEKLSYEVLLFSGIKRS | not soluble
MGSDKIHHHHHHMDTNKLIPLLSDMAIFVTVIEQGNFSKAAKKLGVTPSAVSRQISRLEDALGIKLLQRTTRQLALTESGKLTFDYCKQMVESADQAVNASRSATSTVSGLLRVSAPKSLANKVLRPLFVEFLKCYPDIQLHLKVTDRILDPIHDGVDFLIHINDYPIEALVNIKIGRVEQVLCASPEFLQSHTPPTHPDDLKYLSCICLGENMVDNRWRFINENQQTTVQVAGSYLLNHSDMRRDAIEQGFGIGPLPDYIAQQGIKTGKLIPLLEGWQLTGSYQGDICLQYVQSKYLPNKNRVFIDFMKQKLLIIQPDS | not soluble
MGSDKIHHHHHHMDTPINAPLRKLPIGIQSFEKLRSENFLYVDKTALIYRLAQAGNPCFLSRPRRFGKSLLLSSFEAYFQGKKELFRGLAIEKLEKEWLQYPVLHLSLNAEKYDSREGLIDILERQLRQWEELYRTGGEGITHSGRFMTVIRRACEQTGRRVVVLIDEYDKPLLRSFDSQELQHDFRETLTAFYTVLKDADPWLQFVFITGVTKFAQMGIFSNLNQLNDISFDLDYNTLCGMTRAEIEATFSPELEALAVKSNATCRQVMDRLTRQYDGYRFTKDEEFTSMYNPFSVLSALQKRSYGNYWFASGTPTFLVEMLQKTDFDLREMEGIEVNEASLSDDRADINNPIPMIYQSGYLTIKDYDERFRMYTLGFPNEEVKYGFLNFVSPFYTPIAQTDTSFYIGKFIRELESGDVDAFLTRLRCFFAGIPYDLNDRTERHYQTVFYLVFQLMGQFTETEVRSARGRADAVVKTPDYIYVFEFKLNDSAEAALRQIDEKGYLLPYQADGRKVVKVGVAFEKEERNIGEWMIGG | not soluble
MGSDKIHHHHHHMDVFSANQSAQGIVEEAQQANALDHPAAFEIPRSAVIDIKDSISGRTYPLFIKLPKSYRSQPNKRYPVIYLTDSWYSFQIVSGATRFPMNFNKMDEAIIVAISYSEGSRGSSSRNRDYTPSVNPAWKDITGGAAAHRDFIETTVFDYVERHYRAEAGSRIFVGNSFGGLFGTYVLMSKPEMFDSYILGSPSYWWDKGYIFELEKQFRKSAKPVSAKVFIGIGELEKKVNGVGEDMVKEAQAFYDLMQQWSSRPQTKLLIIPEADHQTAFPTTAIHGLQWILGKCPPKGNCLQGNLN | not soluble
MGSDKIHHHHHHMDYLDIGQAADNKYYSSKRTLPLAIMKENAKEYQPLKINTIKTCSCKENNLNCLTAKEWIKRQIGVWEFYYEKRDIRDKTVHPATFPISLAKQVIELFSHEGELVVDPFVGSGTTLVAARDSNRNAVGFDLQEKYIKLCAERLSTQRIVGNAQQVAIEEDARNISNYFNEESISLIFTSPPYANLLNRERKNKSRRNRKNNQLGKVEQYSQDPRDLGTLDVESYTKEMGDIFEKVKPALRTKGHCVINVPDMWWENKRIAIHVYLINEMTKRGYELRNIIIWDKRNLVNQIGIFGWPSNYITMGVTFEYLLDFWKP | not soluble
MGSDKIHHHHHHMEANSIDVNSILANKNLIIKFQPVVSVIKKSVIGLEAVCLGSSDDNGGIISTSKLFKTAEEQGVLIELDRLYREKAVKEFVKVYKRNKELLLFLDINISIIDKYVGSGIIMNLISDSGISTNNVVLQIIEGKMTNLEALKKFIYLYRSNGFLVALKDLGTGFANMDKISYVEPDIIKINSVLTKGIEVDYYRQEVFRSLVNLSKKIGALVVCEDIASEQETMMIMELGADMLEGSYFENDFDLGEKFLDASRKLIDATAVKYEKYTEEEVKAKEMIYSGYDFVINEALKELSSLTEDKFDDSINTVINKNSKLECVYVLNKEGIQVGSTATRFTDMVPQRALIFEPAQKGTNHSLKKYYYFLKTMSLNKYVTEPYISLATGNLCITISAVFKNLEGKEYILCVDFNPNYMSM | not soluble
MGSDKIHHHHHHMEDIVEALKLAVTNLPEDVALALKNAYEREDYEIAKYNLEIMLRAVKTSKYYYVPLCQDTGTPIFFVETDGTWNVKEIYETIAEAVKRATDEIPLRPNAICLLSGKVVGNVPEIHIEPGKRNRISILIKGGGSENCSALFPLTPGDWFEGVKKKIIDHIRSCGGKPCPPIIVGIGIASPAERAITLAKKSLFRKIGERHEKLGWLEEEILEEINFLDIGPMGLGGKTTALDVKIEVGERHPASFIVGIAIQCWAHRRAFIEEKEDGEVVIWQ | not soluble
MGSDKIHHHHHHMEDKQKVIFIEDDPNLGLIIVLALQSKGYEVCYANTLSGIQDMIEKDCPNILLLDLEVGNQNALDYLPFIRSKHPSLPVLIASSHNEGEEITRCYEAGANHYTKKPYDIQEIDFLIQRFCKKGSPISNSISIGDYQLELSTHKLFYKQEQSKTLSPKDFKLFYLLSEQLNQPVSREKLFHEIWDGQEVHDSLNNSISRLRKLLEKDTTLSIDAVKGVGYILSKKDQLSSS | not soluble
MGSDKIHHHHHHMEDREQLYTLLAQKDWDAIGKIIYKNKKAKKQDPFLTQVTTFFEAEFFEFTRPLPPAERAKQFEHTNLIIELGQHGFSQAFVDNFVDERLKLMQETQHSALLNYAQTYQHRPLAQRIIASFINTKPEAVAASLRENMTIRATDVQPGKAKTIRLFKSKQEEHFYEAVRRVFPTYHPYPNVALSCVLDYQAIKDSLSEQAKSYFFKAIIDSVVFDVGSGYEPKYFIELDSNFHDAAQAQANDKMKDDIFRAANTKLIRIRPLNSKASSIEEFEKLVREVMRQL | not soluble
MGSDKIHHHHHHMEFLIYSLPEEVLREEMLGNFSVALKLIDDFLKKDLPLLQRERLIYEKERIERLLEDYPFTEKEAMEKMREMFEGFSEGEFQYLMNEGVLDYIVVEGEKRFERRFFHNLAFVRSEYRERLRKDERSEKARRILHERLERLIKGEDPKRYRIRARITLKLKETSSKHRVWLPFPKESLQIESVKLLRTSHKSYYISPNDVPQRTIYFEGEDSTFFVEFEYIVREWVNHVDPERVSEKVAGFEEFLKEEPPHIVFTPKLRWLTQTVVGSEVNPYLKAKRIYDWITLNVRYSYVKPYALYENITDFVVNNLKGDCGFQALLFITMCRIAGVPARWQSGWYINPIFGSPHDWALFYVEPYGWLPADLSFGGARRDNESFRSFYFGNLDGFRMVANDGFMKDFDPKTRFVRSDPTDNQVGEAESEEKRLPFESTIEVISFEEV | not soluble
MGSDKIHHHHHHMEGKKTTQEEYQKCVNAVVDYINLHLGEEIDLKSLARISHFSPFYFHRIMKAFLGEPIGTFIVRTRTEAAARLLRYSSTSISDIAYRIGYASPSSFSKIFKQMYGISPTEYRNNKNYVIMKPAIIKPDLELKKEIRELPQRNVIYIRLFGDYKLNDYAGTWMHLIQFVKEQNLPMGDPSPLCIYHDDPKVTPTDKLRTDVCMLLPSNARPKGNVGFKQLPAGRYATFLYKGSYDQLQAVYDTIYGKYLPEMECTLSDEPSAERYLNDPSCTPPEELLTEIYIPIR | not soluble
MGSDKIHHHHHHMEIFEDVVRCGGFRAAALGRGVSSSAISQSISVLEEALGIRLLNRTTRSVAPTEAGEQLLERLRPALYEIRTAVDDLNQLRERPSGTVRINAPGPAADHVLCPLTFEFMKIYPDVNVEIVSDAAIIDIVEQGFDAGVRFGNQLAQDMIAMPLGPALRYAIVASPDYLRKRGRPHSPRDLLQHDCIRRRFPGGTMVTWKFARDGDEVEITPKGRLTLSSAHQELQAALAGSGIAHLFEDYVRDDVEQGRLVELLCDWKQKLPSWYLYYPSRRHTSAAMRAFLEYIRNQRQHPDRR | not soluble
MGSDKIHHHHHHMEINVGAVISANRKQKGITQQALADFVGVSKASVSKWETGQSYPDITLLPILAAYFDVSIDKLMAYDAQLSSTEIRRIYTSMKQAFETQPGDAVLKSIRNLIRRYYACYPFLLQMGLLILNHYDLLPGTSQTAKVTEYVNEARLLFVRVRQNSQKAQLTAKAVELEGYSLLLLQRPDDVLALLGEYVPEQLPADSLIAGAFQQKGDFRRAIATSQSGLMQDLSIIMSQLTNYMTLLKDDPNRLAATYQRGQAIAKAFDLATLNPAVWLNFQLAALNGFAQQDKTDEAVALLQEFTHVLTATKMPLTLHGDAYFDAIEPWLEQLDLGSQSPRVSGQAKQVLADFVLQNPALAKIRTLPVVQPLLAELKQVSGHR | not soluble
MGSDKIHHHHHHMELKSAEEKSLYYRNKIKEVIDEVGKVVVGQKYMINRLLIGICTGGHILLEGVPGLAKTLSVNTLAKTMDLDFHRIQFTPDLLPSDLIGTMIYNQHKGNFEVKKGPVFSNFILADEVNRSPAKVQSALLECMQEKQVTIGDTTYPLDNPFLVLATQNPVEQEGTYPLPEAQVDRFMMKIHLTYLDKESELEVMRRVSNMNFNYQVQKIVSKNDVLEIRNEINKVTISESLEKYIIELVFATRFPAEYGLEAEASYILYGASTRAAINLNRVAKAMAFFNNRDYVLPEDIKEVAYDILNHRIILNYEAEAEGISTRQIIETILRKVNITKA | not soluble
MGSDKIHHHHHHMELLECVEHVIKTRRSHRLYLDKPVEREKLEKMIELAMWAPSAMNRQQWFFVVVAGKRLKEMIGIVEKGYEHILPRLQRFFAETPKVIEQTRRFFKSLGNAPAAVFAYYTPTGDDYSDVQSVSAAIQNMLLAAHAMGLGTCWMTGPVHVEEEINKALGVEGKKLVAVITVGYPAKQPPVPPRRDSEKKVVWMLD | not soluble
MGSDKIHHHHHHMELNHLVTGKIALNQYVHRLEQKDVSFYVHYWGAMTNHYNTLLHKHSFYEICYVVRGEGYYLEGDRTYPLREQTIFLSKPEHLHQIKSETGLFLFYVAFELSEDQSSAEWIKVMEEVKQSPFITMQLKDGEPPGLLWKTLMLQAAQPVNAFDKEILSHLSHALILSLIQTFLPYAQRPKQKQPIHTSSALLTEVKLHIKDNLSQPLKLTDVASHFHISGRHLSRLFAAELGVSYSEFVQNEKINKAAELLKSTNLSIKEIAEEIGFSVHYFTRVFSAKIGSSPGLFRSLYKDSKMTAFQINKPFQKIEQAKPHE | not soluble
MGSDKIHHHHHHMENQLLTLKNNELTVQINPKGAELTHVIENKNKFDFIWNGSEWPKHAPILFPAIGRSTDDEYLLNQKIYPMQQHGFASDYFFEIIDQKEDQISLSLKDNEETYQSYPFQFELKVTYQLVSKKLKIQFEIKNLSVKKLTFALGFHPAFNLSANFEDYQISFETKDKTLKQFEIVKNPFPYRSGKIIEINKAVSNFPLEREFFEKGLVIFDNKIEEVKLFSQETDYQMTMKMADFPYLCLWTKEDENLSYLCIEPFQGLPDILNQKQELLQKEGNISLKSNESKTYEVELTFNSNKGES | not soluble
